Key:
[1] = biological target: the molecule itself; test: native gel or EMSA; native-PAGE on ice (4% stacking, 17% separating gel, Tris-Gly pH 8.8); samples equilibrated overnight in 10 mM PB pH 7.2, 100 mM NaCl
[2] = biological target: the molecule itself; test: SEC; freshly purified protein, 20 mM sodium phosphate, 100 mM NaCl, pH 8.0; superdex 200, 4°C

Protein	binding result [1]	stoichiometry N [2]
wild type TMV CP (tobacco mosaic virus coat protein) (natural protein, also called WT TMV CP; wild TMV CP) SYSITTPSQFVFLSSAWADPIELINLCTNALGNQFQTQQARTVVQRQFSEVWKPSPQVTVRFPDSDFKVYRYNAVLDPLVTALLGAFDTRNRIIEVENQANPTTAETLDATRRVDDATVAIRSAINNLIVELIRGTGSYNRSSFESSSGLVWTSGPAT	binds	
N-His-TMV CP^19 (tobacco mosaic virus coat protein, N-terminal six-His tag, C-terminal residues 155-158 truncated) (domain or fragment, Tobacco mosaic virus (common strain) coat protein, residues 1-154; Gly155, Pro156, Ala157 and Thr158 deleted at the C-terminus; no tag cleavage is described; Oligomeric state depends on buffer: monomer and dimer, 20S, disks, four-layer aggregate, rods; also called genetically engineered TMV CP; truncated TMV CP; source: E. coli BL21 (DE3) RIL, purified (HisTrap, gel filtration on superdex 200); …) SYSITTPSQFVFLSSAWADPIELINLCTNALGNQFQTQQARTVVQRQFSEVWKPSPQVTVRFPDSDFKVYRYNAVLDPLVTALLGAFDTRNRIIEVENQANPTTAETLDATRRVDDATVAIRSAINNLIVELIRGTGSYNRSSFESSSGLVWTS		2

Reference: paper PMC3817195, “Crystal Structure of a Four-Layer Aggregate of Engineered TMV CP Implies the Importance of Terminal Residues for Oligomer Assembly” (PLoS ONE, 2013)
